Experimental data taken from patent US20220372490A1.
Values belong to the binder of their own block, whether it stands above or below them.

Key:
[1] = molecular target: the mutants (p53 mutants in whole cell lysates of SKBR3, MDA-MB-231, MDA-MB-468 and HCC70, as a group); assay: cell-based or functional assay
[2] = molecular target: p53WT and the mutants (p53 in whole cell lysates of CAL-51, SKBR3, MDA-MB-231, MDA-MB-468 and HCC70, as a group); assay: IP of all p53 with excess antibody, WB of PEPD in the precipitate against input
[3] = molecular target: p53^WT, p53^R175H, p53^R248Q, p53^R273H and p53^R280K (His-tagged recombinant proteins, as a group); assay: ELISA, His-tagged recombinant proteins

B1: PEPD in human breast cancer cells (endogenous, in cell lysates, cytosol or nuclear extracts), P12955 2-493 (enzyme, UniProt P12955 2-493, looked up)
chain: AAATGPSFWLGNETLKVPLALFALNRQRLCERLRKNPAVQAGSIVVLQGGEETQRYCTDTGVLFRQESFFHWAFGVTEPGCYGVIDVDTGKSTLFVPRLPASHATWMGKIHSKEHFKEKYAVDDVQYVDEIASVLTSQKPSVLLTLRGVNTDSGSVCREASFDGISKFEVNNTILHPEIVECRVFKTDMELEVLRYTNKISSEAHREVMKAVKVGMKEYELESLFEHYCYSRGGMRHSSYTCICGSGENSAVLHYGHAGAPNDRTIQNGDMCLFDMGGEYYCFASDITCSFPANGKFTADQKAVYEAVLRSSRAVMGAMKPGVWWPDMHRLADRIHLEELAHMGILSGSVDAMVQAHLGAVFMPHGLGHFLGIDVHDVGGYPEGVERIDEPGLRSLRTARHLQPGMVLTVEPGIYFIDHLLDEALADPARASFLNREVLQRFRGFGGVRIEEDVVVTDSGIELLTCVPRTVEEIEACMAGCDKAFTPFSGPK
cells killed by PEPD siRNA after 72 h (trypan blue assay), cells without PEPD^G278D [1]: 65 to 79%

B2: PEPD in human breast cancer cells (endogenous, in cell lysates, cytosol or nuclear extracts) (enzyme, UniProt P12955 2-493, looked up)
chain: AAATGPSFWLGNETLKVPLALFALNRQRLCERLRKNPAVQAGSIVVLQGGEETQRYCTDTGVLFRQESFFHWAFGVTEPGCYGVIDVDTGKSTLFVPRLPASHATWMGKIHSKEHFKEKYAVDDVQYVDEIASVLTSQKPSVLLTLRGVNTDSGSVCREASFDGISKFEVNNTILHPEIVECRVFKTDMELEVLRYTNKISSEAHREVMKAVKVGMKEYELESLFEHYCYSRGGMRHSSYTCICGSGENSAVLHYGHAGAPNDRTIQNGDMCLFDMGGEYYCFASDITCSFPANGKFTADQKAVYEAVLRSSRAVMGAMKPGVWWPDMHRLADRIHLEELAHMGILSGSVDAMVQAHLGAVFMPHGLGHFLGIDVHDVGGYPEGVERIDEPGLRSLRTARHLQPGMVLTVEPGIYFIDHLLDEALADPARASFLNREVLQRFRGFGGVRIEEDVVVTDSGIELLTCVPRTVEEIEACMAGCDKAFTPFSGPK
percent of PEPD that binds to p53 [2]: 6 to 9%

Kd [3]: 145 to 185 nM
B3: His-tagged recombinant human PEPD (prolidase, peptidase D) (enzyme, UniProt P12955 1-493, looked up)
chain: MAAATGPSFWLGNETLKVPLALFALNRQRLCERLRKNPAVQAGSIVVLQGGEETQRYCTDTGVLFRQESFFHWAFGVTEPGCYGVIDVDTGKSTLFVPRLPASHATWMGKIHSKEHFKEKYAVDDVQYVDEIASVLTSQKPSVLLTLRGVNTDSGSVCREASFDGISKFEVNNTILHPEIVECRVFKTDMELEVLRYTNKISSEAHREVMKAVKVGMKEYELESLFEHYCYSRGGMRHSSYTCICGSGENSAVLHYGHAGAPNDRTIQNGDMCLFDMGGEYYCFASDITCSFPANGKFTADQKAVYEAVLRSSRAVMGAMKPGVWWPDMHRLADRIHLEELAHMGILSGSVDAMVQAHLGAVFMPHGLGHFLGIDVHDVGGYPEGVERIDEPGLRSLRTARHLQPGMVLTVEPGIYFIDHLLDEALADPARASFLNREVLQRFRGFGGVRIEEDVVVTDSGIELLTCVPRTVEEIEACMAGCDKAFTPFSGPK
